Measured values taken from US20240132578A1.

Key:
[1] = target: HIV-1 92RW020 envelope (Env) on pseudovirus (HIV-1); assay: cell-based or functional assay
[2] = target: HIV-1 Env of isolate MGRM-Chronic-B-001, clade B (HIV-1); assay: cell-based or functional assay
[3] = target: HIV-1 Env of isolate MGRM-D-014 (clade D pseudovirus) (HIV-1); assay: cell-based or functional assay
[4] = target: HIV-1 Env of isolate MGRM-D-020 (clade D pseudovirus) (HIV-1); assay: cell-based or functional assay
[5] = target: HIV-1 Env of isolate MGRM-D-029 (clade D pseudovirus) (HIV-1); assay: cell-based or functional assay
[6] = target: HIV-1 Env of pseudovirus MGRM-F1-022 (clade F) (HIV-1); assay: cell-based or functional assay
[7] = target: HIV-1 IAVI-C22 envelope (Env) on pseudovirus (HIV-1); assay: cell-based or functional assay
[8] = target: HIV-1 MGRM-AE-001 Env (pseudovirus) (HIV-1); assay: cell-based or functional assay
[9] = target: HIV-1 MGRM-AG-003 Env (pseudovirus) (HIV-1); assay: cell-based or functional assay
[10] = target: HIV-1 MGRM-AG-008 Env (pseudovirus) (HIV-1); assay: cell-based or functional assay
[11] = target: HIV-1 VLGCA1 envelope glycoprotein (Env) on pseudovirus (HIV-1 (clade A)); assay: cell-based or functional assay
[12] = target: HIV-1 envelope glycoprotein (Env) of isolate MGRM-C-004 (HIV-1); assay: cell-based or functional assay
[13] = target: HIV-1 envelope glycoprotein (Env) of isolate MGRM-C-007 (HIV-1); assay: cell-based or functional assay
[14] = target: aMLV envelope on pseudovirus (negative control); assay: cell-based or functional assay
[15] = target: HIV-1 92TH021 Env (HIV-1); assay: cell-based or functional assay
[16] = target: HIV-1 92TH021 envelope protein (Env) on pseudovirus (HIV-1); assay: cell-based or functional assay
[17] = target: HIV-1 Env of isolate MGRM-A-005 (pseudovirus) (HIV-1); assay: cell-based or functional assay
[18] = target: HIV-1 Env of isolate MGRM-A-010 (subtype A) (HIV-1); assay: cell-based or functional assay
[19] = target: HIV-1 Env of isolate MGRM-AE-003 (subtype AE) (HIV-1); assay: cell-based or functional assay
[20] = target: HIV-1 Env of isolate MGRM-AG-003 (subtype AG) (HIV-1); assay: cell-based or functional assay
[21] = target: HIV-1 Env of isolate MGRM-AG-013 (subtype AG) (HIV-1); assay: cell-based or functional assay
[22] = target: HIV-1 Env of isolate MGRM-Chronic-B-001 (HIV-1); assay: cell-based or functional assay
[23] = target: HIV-1 Env of isolate MGRM-Chronic-B-002 (HIV-1); assay: cell-based or functional assay
[24] = target: HIV-1 Env of isolate MGRM-D-001 (pseudovirus) (HIV-1); assay: cell-based or functional assay
[25] = target: HIV-1 Env of isolate MGRM-D-012 (pseudovirus) (HIV-1); assay: cell-based or functional assay
[26] = target: HIV-1 Env of isolate MGRM-F1-012 (HIV-1); assay: cell-based or functional assay
[27] = target: HIV-1 Env of pseudovirus isolate MGRM-C-010 (clade C) (HIV-1); assay: cell-based or functional assay
[28] = target: HIV-1 Env of pseudovirus isolate MGRM-C-012 (clade C) (HIV-1); assay: cell-based or functional assay
[29] = target: HIV-1 Env of pseudovirus isolate MGRM-C-026 (clade C) (HIV-1); assay: cell-based or functional assay
[30] = target: HIV-1 JR-CSF Env P313A (HIV-1 (isolate JR-CSF, clade B)) (UniProt P20871); assay: cell-based or functional assay
[31] = target: HIV-1 JR-CSF Env W395A (HIV-1 (isolate JR-CSF)) (UniProt P20871); assay: cell-based or functional assay
[32] = target: HIV-1 Env of isolate MGRM-AG-011 (pseudovirus) (HIV-1); assay: cell-based or functional assay
[33] = target: HIV-1 Env of isolate MGRM-F1-017 (pseudovirus) (HIV-1); assay: cell-based or functional assay
[34] = target: HIV-1 Env of isolate MGRM-F1-018 (pseudovirus) (HIV-1); assay: cell-based or functional assay
[35] = target: HIV-1 envelope glycoprotein (Env) of isolate 92WR020, subtype A (HIV-1); assay: cell-based or functional assay
[36] = target: HIV-1 envelope glycoprotein (Env) of isolate MG RM-A-011, subtype A (HIV-1); assay: cell-based or functional assay
[37] = target: HIV-1 envelope glycoprotein (Env) of isolate MGRM-Chronic-B-002, on pseudovirus (HIV-1); assay: cell-based or functional assay
[38] = target: HIV-1 envelope glycoprotein (Env) of isolate TRJO4551.58, on pseudovirus (HIV-1); assay: cell-based or functional assay
[39] = target: JR-FL gp120 ΔV1/ΔV2 (HIV-1 JR-FL); assay: ELISA, antigen-coated wells, mAb titrated; EC50 by nonlinear regression

Sequence of 1443_C16 (PG16) (TCN-116) (antibody) (VH): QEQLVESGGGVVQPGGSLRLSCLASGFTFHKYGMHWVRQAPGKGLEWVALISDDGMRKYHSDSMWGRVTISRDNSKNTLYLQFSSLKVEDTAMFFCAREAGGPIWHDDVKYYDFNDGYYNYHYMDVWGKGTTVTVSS
Sequence of 1443_C16 (PG16) (TCN-116) (antibody) (VL): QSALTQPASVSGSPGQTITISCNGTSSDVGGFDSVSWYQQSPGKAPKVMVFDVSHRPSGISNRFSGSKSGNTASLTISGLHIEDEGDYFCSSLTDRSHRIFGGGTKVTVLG

Substance	neutralization IC50 [1]	IC50 (µg/ml), pseudovirus neutralization [2]	IC50, pseudovirus neutralization [3]	IC50, pseudovirus neutralization [4]	IC50, pseudovirus neutralization [5]	IC50 [6]	neutralization IC50 [7]	IC50 (µg/ml), pseudovirus neutralization [8]	IC50 (µg/ml), pseudovirus neutralization [9]	IC50 (µg/ml), pseudovirus neutralization [10]	IC50 (µg/ml), pseudovirus neutralization [11]	IC50 (µg/ml), pseudovirus neutralization [12]	IC50 (µg/ml), pseudovirus neutralization [13]	neutralization IC50 [14]	IC50, pseudovirus neutralization [15]	IC50 (ug/mL), pseudovirus neutralization [16]	Fold IC50 increase relative to wild-type [30]	Fold IC50 increase relative to wild-type (pseudovirus neutralization) [31]	also measured
2F5 (antibody)	3.37 µg/mL	0.55 µg/mL	2.22 µg/mL	> 50 µg/mL	> 50 µg/mL	1.26 µg/mL	> 50 µg/mL	0.29 µg/mL	0.14 µg/mL	0.54 µg/mL	3.9 µg/mL	> 50 µg/mL	> 50 µg/mL	> 50 µg/mL					
5147_N06 (PGT-130) (antibody)															0.0082 µg/mL	0.0082 µg/mL	0.3 fold	0.6 fold	IC50 (µg/mL), pseudovirus neutralization [17]: > 50 µg/mL; IC50, pseudovirus neutralization [18]: 0.005 µg/mL; IC50, pseudovirus neutralization [19]: 0.337 µg/mL; IC50, pseudovirus neutralization [20]: 0.041 µg/mL; IC50, pseudovirus neutralization [21]: 0.01 µg/mL; IC50 (µg/mL), pseudovirus neutralization [22]: > 50 µg/mL; IC50 (µg/mL), pseudovirus neutralization [23]: > 50 µg/mL; IC50 (µg/mL), pseudovirus neutralization [24]: > 50 µg/mL; IC50 (µg/mL), pseudovirus neutralization [25]: > 50 µg/mL; IC50 (µg/mL), pseudovirus neutralization [26]: > 50 µg/mL; IC50, pseudovirus neutralization [27]: > 50 µg/mL; IC50, pseudovirus neutralization [28]: > 50 µg/mL; IC50, pseudovirus neutralization [29]: 0.036 µg/mL
1495_C14 (PGC14) (antibody)	28.6 µg/mL	> 50 µg/mL	48 µg/mL	> 50 µg/mL	> 50 µg/mL	> 50 µg/mL	9.5 µg/mL	> 50 µg/mL	> 50 µg/mL	45 µg/mL	> 50 µg/mL	> 50 µg/mL	> 50 µg/mL	> 50 µg/mL					
5141_B17 (PGT-126) (antibody)															0.115 µg/mL	0.115 µg/mL	0.4 fold	0.6 fold	IC50 (µg/mL), pseudovirus neutralization [32]: 24.5 µg/mL; IC50 (µg/mL), pseudovirus neutralization [33]: > 50 µg/mL; IC50 (µg/mL), pseudovirus neutralization [34]: 14.9 µg/mL; IC50, pseudovirus neutralization [35]: 0.006 µg/mL; IC50, pseudovirus neutralization [36]: > 50 µg/mL; IC50, pseudovirus neutralization [37]: 0.078 µg/mL; IC50, pseudovirus neutralization [38]: 0.025 µg/mL; EC50 [39]: 0.3 µg/mL
4858_P08 (PGT-123) (antibody)															> 10 µg/mL	> 10 µg/mL	0.2 fold	0.4 fold	IC50 (µg/mL), pseudovirus neutralization [32]: > 50 µg/mL; IC50 (µg/mL), pseudovirus neutralization [33]: > 50 µg/mL; IC50 (µg/mL), pseudovirus neutralization [34]: 0.054 µg/mL; IC50, pseudovirus neutralization [35]: 0.002 µg/mL; IC50, pseudovirus neutralization [36]: > 50 µg/mL; IC50, pseudovirus neutralization [37]: 0.234 µg/mL; IC50, pseudovirus neutralization [38]: 16.9 µg/mL; EC50 [39]: 0.3 µg/mL
5136_H01 (PGT-131) (antibody)																	0.52 fold	0.5 fold	IC50 (µg/mL), pseudovirus neutralization [17]: > 50 µg/mL; IC50, pseudovirus neutralization [18]: 0.01 µg/mL; IC50, pseudovirus neutralization [19]: 1.41 µg/mL; IC50, pseudovirus neutralization [20]: 2.92 µg/mL; IC50, pseudovirus neutralization [21]: 0.03 µg/mL; IC50 (µg/mL), pseudovirus neutralization [22]: > 50 µg/mL; IC50 (µg/mL), pseudovirus neutralization [23]: > 50 µg/mL; IC50 (µg/mL), pseudovirus neutralization [24]: > 50 µg/mL; IC50 (µg/mL), pseudovirus neutralization [25]: > 50 µg/mL; IC50 (µg/mL), pseudovirus neutralization [26]: > 50 µg/mL; IC50, pseudovirus neutralization [27]: > 50 µg/mL; IC50, pseudovirus neutralization [28]: > 50 µg/mL; IC50, pseudovirus neutralization [29]: 1.67 µg/mL
1443_C16 (PG16) (TCN-116) (antibody)	0.004 µg/mL	> 50 µg/mL	0.003 µg/mL	16.3 µg/mL	> 50 µg/mL	0.08 µg/mL	0.0687 µg/mL	4.33 µg/mL	> 50 µg/mL	0.002 µg/mL	0.18 µg/mL	5.09 µg/mL	0.05 µg/mL	> 50 µg/mL					
4E10 (antibody)	3.38 µg/mL	1.46 µg/mL	3.24 µg/mL	> 50 µg/mL	5.3 µg/mL	1.01 µg/mL	1.02 µg/mL	0.85 µg/mL	0.64 µg/mL	1.48 µg/mL	4.58 µg/mL	24.2 µg/mL	5.84 µg/mL	> 50 µg/mL					
2G12 (antibody)	0.56 µg/mL	0.08 µg/mL	> 50 µg/mL	> 50 µg/mL	> 50 µg/mL	> 50 µg/mL	> 50 µg/mL	> 50 µg/mL	> 50 µg/mL	> 50 µg/mL	> 50 µg/mL	> 50 µg/mL	> 50 µg/mL	> 50 µg/mL					
b12 (antibody)	> 50 µg/mL	0.75 µg/mL	> 50 µg/mL	> 50 µg/mL	> 50 µg/mL	> 50 µg/mL	3.6 µg/mL	25.9 µg/mL	> 50 µg/mL	> 50 µg/mL	> 50 µg/mL	5.46 µg/mL	> 50 µg/mL	> 50 µg/mL					
